Data published in patent publication US20090068207A1, “Compositions Containing Beta 2-Glycoprotein I-Derived Peptides for the Prevention and/or Treatment of Vascular Disease” (Vascular Biogenics Ltd., priority 2005, published 2009).

What was measured:
ApoE-KO mice = experiment: Aortic sinus lesion area after nasal administration in ApoE-KO mice; format: in vivo
Experimental: Nasal Tolerance: Nasal tolerance was induced by intranasal administration of oxidized LDL, β2GPI, β2GPI-derived peptides or HSP65, in a total volume of 10 μl PBS. Intranasal administration was performed on mildly sedated mice (12-16 weeks old), each mouse receiving […] of antigen per dose, in the indicated concentrations, every other day. Atherogenesis was induced by 5 weeks of a Western diet initiated on the day following the last intranasal administration, or assessed (in Apo E KO mice) after 8 weeks on a chow diet. Controls received equal amounts of BSA and/or PBS, as indicated, in an identical regimen. Plasma was obtained for assessment of cholesterol and triglyceride levels from all mice, and the mice were sacrificed for evaluation of atherosclerosis, as described hereinbelow, after 5 weeks Western diet, or (in Apo E KO mice) after 8 weeks on a chow diet.
Assessment of Atherosclerosis: Quantification of atherosclerotic fatty streak lesions was done by calculating the lesion size in the aortic sinus as previously described (16) and by calculating the lesion size in the aorta. Briefly, after perfusion with saline Tris EDTA, the heart and the aorta were removed from the animals and the peripheral fat cleaned carefully. […] Lesion areas per section were scored on a grid (17) by an observer counting unidentified, numbered specimens. […]

lymph node cells = experiment: Lymph node cell proliferation (stimulation index) to oxLDL after oral administration; format: in vivo, mice; details: oral, 3 doses of 100 μg; LDL-RD mice immunized with OxLDL; OxLDL challenge; mean ± S.E.
Experimental: Proliferation was measured by the incorporation of [^3H] thymidine into DNA during the final 12 h of incubation. The results were computed as stimulation index: the ratio of the mean cpm of the antigen to the mean background cpm obtained in the absence of the antigen.
[…] Three days after the final administration of peptides, the mice were immunized with OxLDL in incomplete Freund's adjuvant, as described in the Examples above, and lymph node cells assessed for antigen (OxLDL) stimulation of proliferation 10 days later. Proliferation was assessed by incorporation of thymidine, expressed as the Stimulation Index, as described.

LDL-RD mice = experiment: Aortic sinus lesion area after nasal tolerance induction, Western diet; format: in vivo; details: END, intranasal 10 μg/mouse every other day for 5 days, then Western diet, mean ± S.E
Experimental: Nasal Tolerance: Nasal tolerance was induced by intranasal administration of oxidized LDL, β2GPI, β2GPI-derived peptides or HSP65, in a total volume of 10 μl PBS. Intranasal administration was performed on mildly sedated mice (12-16 weeks old), each mouse receiving 3 doses of antigen per dose, in the indicated concentrations, every other day. Atherogenesis was induced by 5 weeks of a Western diet initiated on the day following the last intranasal administration, or assessed (in Apo E KO mice) after 8 weeks on a chow diet. Controls received equal amounts of BSA and/or PBS, as indicated, in an identical regimen. Plasma was obtained for assessment of cholesterol and triglyceride levels from all mice, and the mice were sacrificed for evaluation of atherosclerosis, as described hereinbelow, after 5 weeks Western diet, or (in Apo E KO mice) after 8 weeks on a chow diet.
Assessment of Atherosclerosis: Quantification of atherosclerotic fatty streak lesions was done by calculating the lesion size in the aortic sinus as previously described (16) and by calculating the lesion size in the aorta. Briefly, after perfusion with saline Tris EDTA, the heart and the aorta were removed from the animals and the peripheral fat cleaned carefully. The upper section of the heart was embedded in OCT medium (10.24% w/w polyvinyl alcohol; 4.26% w/w polyethylene glycol; 85.50% w/w nonreactive ingredients) and frozen. Every other section (10 μm thick) throughout the aortic sinus (400 μm) was taken for analysis. The distal portion of the aortic sinus was recognized by the three valve cusps that are the junctions of the aorta to the heart. Sections were evaluated for fatty streak lesions after processing and staining with oil-red O, according to Paigen et al (Atherosclerosis, 1987; 68:231-40). Lesion areas per section were scored on a grid (17) by an observer counting unidentified, numbered specimens. The aorta was dissected from the heart and surrounding adventitious tissue was removed. Fixation of the aorta and Sudan staining of the vessels were performed as previously described (21).
Mice were bled prior to feeding (Time 0) and at the conclusion of the experiment (End) for determination of lipid profile. Atherosclerosis was assessed in heart and aorta as described above, 8 weeks after the last feeding. Mice were weighed every 2 weeks during the experiment. All mice were fed water ad libitum and a normal chow-diet containing 4.5% fat by weight (0.02% cholesterol), up to the final antigen exposure, and then a “Western” diet until sacrifice.
Thus, nasal exposure to a low dose and an exceedingly low dose of recombinant human HSP 65 were compared for their effectiveness in suppressing atherogenesis in LDL-RD mice. 58 male 12-16 week old LDL-RD mice were divided into 4 groups.

[1] = test system: aorta tissue from ApoE-KO mice; experiment: RT-PCR analysis of cytokine expression in aorta; format: in vivo; details: oral 100 μg/mouse, 5 times every other day; male ApoE-KO mice
Experimental: RT-PCR analysis of cytokine expression: 7-9 week old male ApoE-KO mice were tolerized by oral administration of β2GPI in 5 feedings, every other day, of human β2GPI (100 μg/mouse) or PBS, as control, by gavage, as detailed hereinabove. Three days following the oral administration of β2GPI, the mice were sacrificed, aortas collected and processed for RT-PCR analysis of the expression of anti-inflammatory Th2 type cytokine IL-10 and the proinflammatory Th1-type cytokine IFN-γ. The RT-PCR analysis was performed according to the protocol as described in detail by Colle et al (Journal of Immunol Methods 1997; 175-184). Briefly, RNA was extracted from the aortal tissue and reverse transcribed according to well-known, standard protocols, and the transcription products subjected to PCR amplification using the following primers: IL-10-forward primer 5′ […] 3′ (SEQ ID NO: 1), located at nucleotide positions 256-278 of IL-10 (GenBank Accession No. NM 010548 (SEQ ID NO: 2)) and reverse primer 5′[…] 3′ (SEQ ID NO: 3), located at nucleotide positions 532-556 of IL-10 (GenBank Accession No. NM 010548 (SEQ ID NO: 2)); IFN-γ-forward primer 5′ […] 3′ (SEQ ID NO: 4), located at nucleotide positions 372-397 of IFN-γ (GenBank Accession No. NM 008337 (SEQ ID NO: 5)), reverse primer 5′ […] 3′ (SEQ ID NO: 6), located at nucleotide positions 804-827 of IFN-γ (GenBank Accession No. NM 008337 (SEQ ID NO: 5)); and β-actin-forward primer 5′ […] 3′ (SEQ ID NO: 7), located at nucleotide positions 230-252 of β-actin (GenBank Accession No. NM 007393 (SEQ ID NO: 8)), and reverse primer 5′ […] 3′ (SEQ ID NO: 9), located at nucleotide positions […] of β-actin (GenBank Accession No. NM 007393 (SEQ ID NO: 8)). The resultant amplified IL-10, IFN-γ and β-actin transcripts were separated by electrophoresis on an agarose gel, and visualized by ehtidium bromide staining.
Male ApoE-KO mice 7-9 weeks of age were treated by oral administration of human β2GPI (100 μg/mouse) or PBS, as control, by gavage, as detailed hereinabove, 5 times, on every other day. […]

B1: Human β2 GPI: human beta2-glycoprotein I (SEQ ID NO: 10) purified from serum (protein)
chain: MISPVLILFSSFLCHVAIAGRTCPKPDDLPFSTVVPLKTFYEPGEEITYSCKPGYVSRGGMRKFICPLTGLWPINTLKCTPRVCPFAGILENGAVRYTTFEYPNTISFSCNTGFYLNGADSAKCTEEGKWSPELPVCAPIICPPPSIPTFATLRVYKPSAGNNSLYRDTAVFECLPQHAMFGNDTITCTTHGNWTKLPECREVKCPFPSRPDNGFVNYPAKPTLYYKDKATFGCHDGYSLDGPEEIECTKLGNWSAMPSCKASCKLPVKKATVVYQGERVKIQEKFKNGMLHGDKVSFFCKNKEKKCSYTEDAQCIDGTIEVPKCFKEHSSLAFWKTDASDVKPC
- Aortic sinus lesion (μm^2) (ApoE-KO mice; End, nasal 10 μg/mouse, mean ± S.E): 117449 ± 7524 μm^2
- reduction of progression of atherosclerotic lesions compared to PBS controls (ApoE-KO mice; nasal 10 μg, 3 doses, then 8 weeks of chow diet): 19%
- Stimulation index (lymph node cells): 38 ± 12
- Aortic sinus lesion (μm^2) (LDL-RD mice): 46250 ± 4486 μm^2
- expression of IFN-γ in aorta (RT-PCR) [1]: inhibition of expression
- expression of IL-10 in aorta (RT-PCR) [1]: induction of expression
- tissue levels of β-actin gene transcripts (RT-PCR) [1]: without any influence
